pEC50, pKd: −log10 of the molar value.
Columns and labels:
[1] = biological target: TIM-3 expressed on activated human T cells (human (endogenous in activated T cells)) (UniProt Q8TDQ0)
[2] = biological target: TIM-3 expressed on activated human T cells (human (endogenous in activated T cells)) (UniProt Q8TDQ0); test: Scatchard analysis; on activated human T cells
[3] = biological target: TIM-3 expressed on activated human T cells (human (endogenous in activated T cells)) (UniProt Q8TDQ0); test: flow cytometry on cells; FACS on activated human T cells

Sequence of UniProt Q8TDQ0 (Q8TDQ0 22-301): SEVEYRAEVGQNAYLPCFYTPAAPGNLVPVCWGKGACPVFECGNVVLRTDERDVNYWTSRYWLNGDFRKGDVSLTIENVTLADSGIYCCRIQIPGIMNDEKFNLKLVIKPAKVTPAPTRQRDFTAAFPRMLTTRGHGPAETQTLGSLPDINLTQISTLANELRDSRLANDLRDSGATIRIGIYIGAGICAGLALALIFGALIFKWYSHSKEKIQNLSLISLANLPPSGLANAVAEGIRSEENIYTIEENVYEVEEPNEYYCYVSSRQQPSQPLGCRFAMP

BMS-986258, fully human immunoglobulin (Ig)G1 anti-TIM-3 monoclonal antibody
EC50 in a human tumor TIL assay (IFN-gamma; TIL co-cultured with irradiated CHO-OKT3 cells) [1]: 1.2 nM
pKd [2]: 9.80
pEC50 [3]: 10.00
